Values of other authors in patent publication US20140212945.

Target: T1, MBNL1 (muscleblind-like 1 protein) (UniProt Q9NR56)
T1 sequence: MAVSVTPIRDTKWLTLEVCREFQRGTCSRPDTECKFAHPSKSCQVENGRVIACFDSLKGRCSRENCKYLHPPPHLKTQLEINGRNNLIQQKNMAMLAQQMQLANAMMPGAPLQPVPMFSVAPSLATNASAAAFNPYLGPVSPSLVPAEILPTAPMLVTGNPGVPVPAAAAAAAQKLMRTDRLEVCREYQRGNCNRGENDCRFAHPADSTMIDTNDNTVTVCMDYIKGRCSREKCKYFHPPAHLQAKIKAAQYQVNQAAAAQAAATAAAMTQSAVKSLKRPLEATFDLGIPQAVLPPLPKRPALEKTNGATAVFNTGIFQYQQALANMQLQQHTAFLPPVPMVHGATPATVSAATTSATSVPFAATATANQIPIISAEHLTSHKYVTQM
Conditions: CITED; value taken from previous report (ref 15 / ref 13); Table 5 lists the same value for r(CUG)exp

Q: With r(CUG)12x2 as the substance, how does the Kd read?
A: 250 nM
